Reference: paper PMC12052454
Primed or numbered codes have the meaning given here. The star is where a group is joined. 5FAM = O=C1OC2(c3ccc(O)cc3Oc3cc(O)ccc32)c2ccc(C(=O)*)cc21; Dabcyl′ = CN(C)c1ccc(/N=N/c2ccc(C(=O)*)cc2)cc1

Molecular target: ADAM9-P750L (rs144750648) (human) (UniProt Q13443)
Set-up: unit not given beside the values

Sequence of UniProt Q13443 (Q13443 29-819 P750L): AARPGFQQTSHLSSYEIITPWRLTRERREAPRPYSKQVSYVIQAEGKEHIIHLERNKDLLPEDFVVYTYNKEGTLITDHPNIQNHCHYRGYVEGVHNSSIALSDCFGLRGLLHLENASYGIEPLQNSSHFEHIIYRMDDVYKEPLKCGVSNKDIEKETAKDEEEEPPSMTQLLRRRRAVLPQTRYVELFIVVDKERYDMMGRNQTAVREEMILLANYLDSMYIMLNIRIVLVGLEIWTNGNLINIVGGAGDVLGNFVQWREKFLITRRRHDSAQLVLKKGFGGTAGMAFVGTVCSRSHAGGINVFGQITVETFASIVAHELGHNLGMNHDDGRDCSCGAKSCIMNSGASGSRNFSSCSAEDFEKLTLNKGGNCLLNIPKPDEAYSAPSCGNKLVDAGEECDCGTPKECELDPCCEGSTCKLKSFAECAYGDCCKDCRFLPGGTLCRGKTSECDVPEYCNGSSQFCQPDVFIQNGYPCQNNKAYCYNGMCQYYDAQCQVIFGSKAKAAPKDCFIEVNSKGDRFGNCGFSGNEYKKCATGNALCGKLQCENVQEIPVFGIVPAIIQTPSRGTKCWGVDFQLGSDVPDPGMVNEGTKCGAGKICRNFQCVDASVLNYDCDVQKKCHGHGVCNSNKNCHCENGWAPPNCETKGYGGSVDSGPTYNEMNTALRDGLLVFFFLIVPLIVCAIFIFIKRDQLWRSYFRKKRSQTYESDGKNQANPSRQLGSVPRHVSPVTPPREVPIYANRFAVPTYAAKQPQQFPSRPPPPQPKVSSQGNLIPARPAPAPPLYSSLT

B1: ADAM9 fluorogenic substrate PEPDAB010 (Dabcyl-…[5-FAM]-NH2) (peptide)
peptide: {Dabcyl′}-SPLAQAVRSSK(5FAM)-NH2
SMILES: CC(C)C[C@H](NC(=O)[C@@H]1CCCN1C(=O)[C@H](CO)NC(=O)c1ccc(/N=N/c2ccc(N(C)C)cc2)cc1)C(=O)N[C@@H](C)C(=O)N[C@@H](CCC(N)=O)C(=O)N[C@@H](C)C(=O)N[C@H](C(=O)N[C@@H](CCCNC(=N)N)C(=O)N[C@@H](CO)C(=O)N[C@@H](CO)C(=O)N[C@@H](CCCCNC(=O)c1ccc2c(c1)C(=O)OC21c2ccc(O)cc2Oc2cc(O)ccc21)C(N)=O)C(C)C
Km of cleavage of the fluorogenic substrate PEPDAB010 (Lineweaver-Burk plot, lysates of transfected HEK293 cells), reduction compared to ADAM9 WT (% reduction of Km compared to ADAM9 WT): 41.9
